Here are results for 11 molecules from US20250145711A1 (Janssen / Centocor, published 2025).

Sequences and labels used below:
B1: PSMB1068 (bispecific antibody, human IgG1, kappa, L234A L235A)
heavy: not shown
light: not shown
chain: QVQLQESGGDVVQPGRSLRLSCAASGFSFSGYGLHWVRQAPGRGLEWVTLISYDGSNKYYADSVKGRFTISRDNSKNTLYLQMNSLRAEDTAVYYCAKTTVSDPYYYGMDVWGQGTTVTVSSGGSEGKSSGSGSESKSTGGSSYELTQPPSVSVAPGQTARITCGGNNIGSKSVHWYQQKPGQAPVLVVYDDSDRPSGIPERFSGTNSGNTATLTISRAEAGDEADYYCQVWDSSSDHVVFGGGTKLTVLEPKSSDKTHTCPPCPAPEAAGGPSVFLFPPKPKDTLMISRTPEVTCVVVSVSHEDPEVKFNWYVDGVEVHNAKTKPREEQYNSTYRVVSVLTVLHQDWLNGKEYKCKVSNKALPAPIEKTISKAKGQPREPQVYVLPPSREEMTKNQVSLLCLVKGFYPSDIAVEWESNGQPENNYLTWPPVLDSDGSFFLYSKLTVDKSRWQQGNVFSCSVMHEALHNHYTQKSLSLSPG
notes: HC1 (ZWA): B23B62-Fab; LC2 is NA
B2: PSMB1051 (bispecific antibody, human IgG1, kappa, L234A L235A)
heavy: not shown
light: not shown
chain: QSVLTQPPSASGTPGQGVTISCSGSSSNIGSNTVNWFQQLPGTAPKLLIYSDNQRPSGVPDRFSGSKSGTSASLAISGLQSEDEADYYCAAWDDSLNGYVFGTGTKVTVLGGSEGKSSGSGSESKSTGGSEVQLVESGGGVVQPGRSLRLSCAASGFTFITYGMHWVRQAPGKGLEWVAVVSFDESNKYYADSVKGRFTISRDNSKNTLYLQMNSLRAEDTAVYYCARALRDGNNWDYFNGMDVWGQGTTVTVSSEPKSSDKTHTCPPCPAPEAAGGPSVFLFPPKPKDTLMISRTPEVTCVVVSVSHEDPEVKFNWYVDGVEVHNAKTKPREEQYNSTYRVVSVLTVLHQDWLNGKEYKCKVSNKALPAPIEKTISKAKGQPREPQVYVLPPSREEMTKNQVSLLCLVKGFYPSDIAVEWESNGQPENNYLTWPPVLDSDGSFFLYSKLTVDKSRWQQGNVFSCSVMHEALHNHYTQKSLSLSPG
notes: as for B1
B3: PSMB1045 (bispecific antibody, human IgG1, kappa, L234A L235A)
heavy: not shown
light: not shown
chain: SYELMQPPSVSVSPGQTARITCSGDALPKQYAYWYQQKPGQAPVLVIYKDSERPSGIPVRFSGSSSGTTVTLTITGVQAEDEADYYCQSADSSGTYVFGTGTKVTVLGGSEGKSSGSGSESKSTGGSQVQLVESGGGVVQPGRSLRLSCAASGFTFSSYNMNWVRQAPGKGLEWVAIIYYDGSNKYYADSVKGRFTISRDISKNTLYLQMNSLRAEDTAVYYCARERGRDYYGMDVWGQGTTVTVSSEPKSSDKTHTCPPCPAPEAAGGPSVFLFPPKPKDTLMISRTPEVTCVVVSVSHEDPEVKFNWYVDGVEVHNAKTKPREEQYNSTYRVVSVLTVLHQDWLNGKEYKCKVSNKALPAPIEKTISKAKGQPREPQVYVLPPSREEMTKNQVSLLCLVKGFYPSDIAVEWESNGQPENNYLTWPPVLDSDGSFFLYSKLTVDKSRWQQGNVFSCSVMHEALHNHYTQKSLSLSPG
notes: as for B1
B4: PSMB1049 (bispecific antibody, human IgG1, kappa, L234A L235A)
heavy: not shown
light: not shown
chain: QSVLTQPASVSGSPGQSITISCTGTSSDVGGYNYVSWYQQHPGKAPKLMIYEVSNRPSGVSNRFSGSKSGNTASLTISGLQAEDEADYYCSSYTSSYTYVFGTGTKLTVLGGSEGKSSGSGSESKSTGGSEVQLVESGGDLVQPGGSLRLSCAASGFTFNNYNMNWVRQAPGKGLEWVSHISTSSSNKYYADSVKGRFSISRDIAKNSMYLQMNSLRDEDTAVYYCARDGVGADYGDYYYYGMDVWGQGTTVTVSSEPKSSDKTHTCPPCPAPEAAGGPSVFLFPPKPKDTLMISRTPEVTCVVVSVSHEDPEVKFNWYVDGVEVHNAKTKPREEQYNSTYRVVSVLTVLHQDWLNGKEYKCKVSNKALPAPIEKTISKAKGQPREPQVYVLPPSREEMTKNQVSLLCLVKGFYPSDIAVEWESNGQPENNYLTWPPVLDSDGSFFLYSKLTVDKSRWQQGNVFSCSVMHEALHNHYTQKSLSLSPG
notes: as for B1
B5: BC3B106 (bispecific antibody, human IgG1, kappa, L234A L235A)
chain: QVQLVQSGAEVKKPGSSVKVSCKASGYTFTRSTMHWVKQAPGQGLEWMGYINPSSAYTNYNQKFQGRVTLTADKSTSTAYMELSSLRSEDTAVYYCASPQVHYDYNGFPYWGQGTLVTVSSGGSEGKSSGSGSESKSTGGSEIVLTQSPATLSASPGERVTLSCSASSSVSYMNWYQQKPGQAPRRLIYDSSKLASGVPARFSGSGSGRDYTLTISSLEPEDFAVYYCQQWSRNPPTFGGGTKVEIKEPKSSDKTHTCPPCPAPEAAGGPSVFLFPPKPKDTLMISRTPEVTCVVVSVSHEDPEVKFNWYVDGVEVHNAKTKPREEQYNSTYRVVSVLTVLHQDWLNGKEYKCKVSNKALPAPIEKTISKAKGQPREPQVYVYPPSREEMTKNQVSLTCLVKGFYPSDIAVEWESNGQPENNYKTTPPVLDSDGSFALVSKLTVDKSRWQQGNVFSCSVMHEALHNHYTQKSLSLSPG
heavy: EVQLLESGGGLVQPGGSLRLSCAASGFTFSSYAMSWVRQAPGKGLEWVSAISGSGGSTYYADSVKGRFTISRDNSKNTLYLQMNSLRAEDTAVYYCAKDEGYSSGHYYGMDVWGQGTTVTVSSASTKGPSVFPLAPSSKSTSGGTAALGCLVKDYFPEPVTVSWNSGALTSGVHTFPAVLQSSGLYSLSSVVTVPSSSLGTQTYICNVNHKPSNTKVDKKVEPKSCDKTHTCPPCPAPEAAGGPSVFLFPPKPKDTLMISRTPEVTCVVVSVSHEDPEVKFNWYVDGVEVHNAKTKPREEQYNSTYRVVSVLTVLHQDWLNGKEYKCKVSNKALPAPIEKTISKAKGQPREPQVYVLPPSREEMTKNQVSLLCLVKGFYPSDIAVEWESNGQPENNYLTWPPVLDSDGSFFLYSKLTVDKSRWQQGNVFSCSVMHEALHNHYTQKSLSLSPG
light: EIVLTQSPGTLSLSPGERATLSCRASQSISSSFLTWYQQKPGQAPRLLIYGASSRATGIPDRFSGGGSGTDFTLTISRLEPEDFAVYYCQHYGSSPMYTFGQGTKLEIKRTVAAPSVFIFPPSDEQLKSGTASVVCLLNNFYPREAKVQWKVDNALQSGNSQESVTEQDSKDSTYSLSSTLTLSKADYEKHKVYACEVTHQGLSSPVTKSFNRGEC
notes: IgG1 BCMAxCD3; HC1: CD3B2051 HL scFv-Fc; also called BC3B106.001; B2051 HL
B6: BC3B116 (bispecific antibody, human IgG1, kappa, L234A L235A)
chain: EIVLTQSPATLSASPGERVTLSCSASSSVSYMNWYQQKPGQAPRRWIYDSSKLASGVPARFSGSGSGRDYTLTISSLEPEDFAVYYCQQWSRNPPTFGGGTKVEIKGGSEGKSSGSGSESKSTGGSQVQLVQSGAEVKKPGSSVKVSCKASGYTFTRSTMHWVKQAPGQGLEWIGYINPSSAYTNYNQKFQGRVTLTADKSTSTAYMELSSLRSEDTAVYYCASPQVHYDYNGFPYWGQGTLVTVSSEPKSSDKTHTCPPCPAPEAAGGPSVFLFPPKPKDTLMISRTPEVTCVVVSVSHEDPEVKFNWYVDGVEVHNAKTKPREEQYNSTYRVVSVLTVLHQDWLNGKEYKCKVSNKALPAPIEKTISKAKGQPREPQVYVYPPSREEMTKNQVSLTCLVKGFYPSDIAVEWESNGQPENNYKTTPPVLDSDGSFALVSKLTVDKSRWQQGNVFSCSVMHEALHNHYTQKSLSLSPG
heavy: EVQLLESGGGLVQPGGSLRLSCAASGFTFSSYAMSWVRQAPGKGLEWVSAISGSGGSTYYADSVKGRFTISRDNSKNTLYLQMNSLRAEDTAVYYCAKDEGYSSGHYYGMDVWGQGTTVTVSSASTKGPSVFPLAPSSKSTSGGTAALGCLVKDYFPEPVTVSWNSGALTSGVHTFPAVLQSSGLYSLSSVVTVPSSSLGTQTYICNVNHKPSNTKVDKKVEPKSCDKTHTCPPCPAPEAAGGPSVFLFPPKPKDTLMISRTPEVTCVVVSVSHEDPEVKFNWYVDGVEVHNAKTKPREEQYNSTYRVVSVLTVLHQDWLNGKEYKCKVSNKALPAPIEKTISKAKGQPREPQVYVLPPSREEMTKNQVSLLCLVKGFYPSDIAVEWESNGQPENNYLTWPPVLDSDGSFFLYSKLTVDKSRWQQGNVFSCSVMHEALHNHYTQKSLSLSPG
light: B5 light
notes: IgG1 BCMAxCD3; HC1: CD3B2030 LH scFv-Fc; also called BC3B116.001; B2030 LH
B7: BC3B111 (bispecific antibody, human IgG1, kappa, L234A L235A)
chain: B5 chain with K38R, N61A, L187W
heavy: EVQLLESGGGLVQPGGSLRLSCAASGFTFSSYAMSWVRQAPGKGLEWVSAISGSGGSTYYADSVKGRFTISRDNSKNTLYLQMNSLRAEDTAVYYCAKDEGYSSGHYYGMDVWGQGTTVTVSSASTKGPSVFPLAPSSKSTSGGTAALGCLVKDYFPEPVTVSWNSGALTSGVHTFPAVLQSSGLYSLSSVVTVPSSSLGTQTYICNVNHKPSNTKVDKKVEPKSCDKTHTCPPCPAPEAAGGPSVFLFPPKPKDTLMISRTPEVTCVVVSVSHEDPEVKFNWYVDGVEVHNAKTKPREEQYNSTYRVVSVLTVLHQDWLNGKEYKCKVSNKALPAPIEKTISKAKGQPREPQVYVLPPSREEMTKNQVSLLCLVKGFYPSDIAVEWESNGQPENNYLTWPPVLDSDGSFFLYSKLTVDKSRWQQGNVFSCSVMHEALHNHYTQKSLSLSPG
light: B5 light
notes: IgG1 BCMAxCD3; HC1: CD3B2089 HL scFv-Fc; also called BC3B111.001; B2089 HL
B8: BC3B120 (bispecific antibody, human IgG1, kappa, L234A L235A)
chain: B6 chain with W46L, I174M
heavy: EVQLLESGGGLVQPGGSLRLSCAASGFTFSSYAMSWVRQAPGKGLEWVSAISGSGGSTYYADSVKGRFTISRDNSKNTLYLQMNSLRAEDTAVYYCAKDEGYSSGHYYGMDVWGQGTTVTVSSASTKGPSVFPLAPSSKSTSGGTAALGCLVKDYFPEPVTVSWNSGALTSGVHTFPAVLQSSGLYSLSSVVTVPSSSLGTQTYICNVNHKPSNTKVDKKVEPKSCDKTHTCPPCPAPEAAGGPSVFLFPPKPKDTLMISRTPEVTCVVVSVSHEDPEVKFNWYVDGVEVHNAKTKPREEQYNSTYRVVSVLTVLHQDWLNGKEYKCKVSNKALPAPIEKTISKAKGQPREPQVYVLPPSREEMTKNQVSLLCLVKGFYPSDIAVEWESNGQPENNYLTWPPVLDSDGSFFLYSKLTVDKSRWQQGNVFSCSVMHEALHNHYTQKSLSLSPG
light: B5 light
notes: IgG1 BCMAxCD3; HC1: CD3B2051 LH scFv-Fc; also called BC3B120.001; B2051 LH
B9: BC3B125 (bispecific antibody, human IgG1, kappa, L234A L235A)
chain: B6 chain with K164R, I174M, N187A
heavy: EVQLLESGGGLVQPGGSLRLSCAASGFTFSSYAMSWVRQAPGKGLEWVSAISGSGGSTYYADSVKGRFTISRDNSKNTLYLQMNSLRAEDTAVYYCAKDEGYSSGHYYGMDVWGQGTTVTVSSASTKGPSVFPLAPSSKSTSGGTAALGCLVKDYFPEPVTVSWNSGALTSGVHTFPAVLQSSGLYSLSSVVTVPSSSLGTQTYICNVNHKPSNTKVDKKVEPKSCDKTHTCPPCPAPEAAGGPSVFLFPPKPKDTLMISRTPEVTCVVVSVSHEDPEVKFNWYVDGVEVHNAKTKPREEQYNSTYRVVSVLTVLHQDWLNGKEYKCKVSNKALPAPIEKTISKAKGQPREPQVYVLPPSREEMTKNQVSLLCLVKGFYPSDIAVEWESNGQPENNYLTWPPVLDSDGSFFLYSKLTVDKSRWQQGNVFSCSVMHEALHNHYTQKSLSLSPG
light: B5 light
notes: IgG1 BCMAxCD3; HC1: CD3B2089 LH scFv-Fc; also called BC3B125.001; B2089 LH
B10: BC3B124 (bispecific antibody, human IgG1, kappa, L234A L235A)
chain: B6 chain with W46L, I174M, N232S
heavy: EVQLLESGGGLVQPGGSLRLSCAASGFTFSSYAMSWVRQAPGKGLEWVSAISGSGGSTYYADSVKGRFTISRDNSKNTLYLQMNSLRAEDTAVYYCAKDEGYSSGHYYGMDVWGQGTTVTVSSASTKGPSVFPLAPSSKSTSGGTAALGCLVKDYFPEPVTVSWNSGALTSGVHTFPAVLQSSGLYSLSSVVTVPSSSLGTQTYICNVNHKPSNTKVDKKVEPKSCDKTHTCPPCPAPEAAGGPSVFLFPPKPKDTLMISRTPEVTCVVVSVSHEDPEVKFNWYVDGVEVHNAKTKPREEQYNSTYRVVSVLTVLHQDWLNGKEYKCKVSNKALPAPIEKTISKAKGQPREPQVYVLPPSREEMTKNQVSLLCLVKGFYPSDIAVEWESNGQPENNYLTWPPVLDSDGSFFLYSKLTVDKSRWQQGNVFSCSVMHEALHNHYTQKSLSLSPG
light: B5 light
notes: IgG1 BCMAxCD3; HC1: CD3B2051-N106S LH scFv-Fc; also called BC3B124.001; B2051 LH NtoS
B11: BC3B112 (bispecific antibody, human IgG1, kappa, L234A L235A)
chain: B5 chain with K38R, N61A, N106A, L187W
heavy: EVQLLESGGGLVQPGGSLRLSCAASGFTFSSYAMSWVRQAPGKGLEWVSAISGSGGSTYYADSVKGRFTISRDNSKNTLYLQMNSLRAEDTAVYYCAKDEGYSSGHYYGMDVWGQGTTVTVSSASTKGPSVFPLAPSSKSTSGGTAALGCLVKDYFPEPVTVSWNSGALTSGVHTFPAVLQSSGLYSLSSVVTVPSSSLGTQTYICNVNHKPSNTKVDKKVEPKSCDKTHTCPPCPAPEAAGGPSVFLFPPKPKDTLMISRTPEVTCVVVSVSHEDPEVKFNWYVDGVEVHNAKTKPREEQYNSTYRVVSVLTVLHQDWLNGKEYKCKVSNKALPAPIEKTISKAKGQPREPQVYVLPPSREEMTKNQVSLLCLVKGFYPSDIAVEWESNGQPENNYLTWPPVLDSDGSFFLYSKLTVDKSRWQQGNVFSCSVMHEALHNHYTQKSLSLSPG
light: B5 light
notes: IgG1 BCMAxCD3; HC1: CD3B2089-N106A HL scFv-Fc; also called BC3B112.001; B2089 HL NtoA

Substitutions are numbered along the chain they refer to. Names and notes keep the numbering of the source.

T1 sequence (Q04609 whole entry): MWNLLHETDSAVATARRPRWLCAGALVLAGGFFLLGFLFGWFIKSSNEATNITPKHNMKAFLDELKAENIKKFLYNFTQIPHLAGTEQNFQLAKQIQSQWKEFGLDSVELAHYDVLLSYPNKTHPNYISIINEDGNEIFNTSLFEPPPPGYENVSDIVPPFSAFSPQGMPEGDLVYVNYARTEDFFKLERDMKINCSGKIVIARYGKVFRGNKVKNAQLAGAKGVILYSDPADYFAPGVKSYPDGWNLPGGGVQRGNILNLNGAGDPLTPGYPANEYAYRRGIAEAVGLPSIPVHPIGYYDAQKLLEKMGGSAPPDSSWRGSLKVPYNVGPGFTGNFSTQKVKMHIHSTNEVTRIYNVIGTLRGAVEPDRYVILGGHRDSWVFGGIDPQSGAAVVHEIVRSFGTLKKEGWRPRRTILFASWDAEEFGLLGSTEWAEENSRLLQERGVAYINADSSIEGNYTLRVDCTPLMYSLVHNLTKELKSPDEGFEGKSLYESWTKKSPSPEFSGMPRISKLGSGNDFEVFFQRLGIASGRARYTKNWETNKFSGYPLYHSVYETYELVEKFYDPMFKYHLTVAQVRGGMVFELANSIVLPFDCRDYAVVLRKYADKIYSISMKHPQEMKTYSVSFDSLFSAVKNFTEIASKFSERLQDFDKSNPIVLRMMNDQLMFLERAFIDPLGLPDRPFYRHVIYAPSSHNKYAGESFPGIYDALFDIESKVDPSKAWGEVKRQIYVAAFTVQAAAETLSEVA

The first test concerns the target T1, human PSMA on prostate cancer cell lines (22RV1, C4-2B) (human, UniProt Q04609 1-750).
T1 construct: also called PSMA-expressing cell lines
Description: flow cytometry on C4-2B cells, four-parameter fit. The method, then: Molecule concentrations ranged from 500-0 nM over 12-points at 3-fold dilution. […] Values reported in the Table 69 were generated by fitting the data to a four-parameter function for ligand binding generating values for y-min, y-max, EC50, and Hill. EC90 were calculated using the equation EC90=[…]\hat{ }(1/Hill)*EC50.
(Flow cytometry measures light scatter and fluorescence of single cells or particles in a stream.)
In general, EC50 refers to the concentration at which the effect is half-maximal. The low end stands for greater potency, the high end for weaker potency. The EC90 is the concentration needed for an effect of 90%. A low value points to greater potency. As to B1, the 50% effective concentration (EC50) stood at 8 nM, the 90% effect concentration (EC90) was determined as 247 nM, the Y-max is 1.9e+06 and the Y-min came out at 48000.
The corresponding values for B2 are 10 nM, 76 nM, 1.5e+06 and 67000.
The corresponding values for B3 are 7 nM, 248 nM, 1.8e+06 and 53000.
The molecule B4 displayed an EC50 of 5 nM, an EC90 of 40 nM, a Y-max of 1.5e+06 and a Y-min of 84000.

For the next test, the target named is T2, recombinant human PSMA (human, UniProt Q04609 44-750).
T2 construct: also called hu PSMA; prostate-specific membrane antigen
T2 sequence (Q04609 44-750 limits assumed): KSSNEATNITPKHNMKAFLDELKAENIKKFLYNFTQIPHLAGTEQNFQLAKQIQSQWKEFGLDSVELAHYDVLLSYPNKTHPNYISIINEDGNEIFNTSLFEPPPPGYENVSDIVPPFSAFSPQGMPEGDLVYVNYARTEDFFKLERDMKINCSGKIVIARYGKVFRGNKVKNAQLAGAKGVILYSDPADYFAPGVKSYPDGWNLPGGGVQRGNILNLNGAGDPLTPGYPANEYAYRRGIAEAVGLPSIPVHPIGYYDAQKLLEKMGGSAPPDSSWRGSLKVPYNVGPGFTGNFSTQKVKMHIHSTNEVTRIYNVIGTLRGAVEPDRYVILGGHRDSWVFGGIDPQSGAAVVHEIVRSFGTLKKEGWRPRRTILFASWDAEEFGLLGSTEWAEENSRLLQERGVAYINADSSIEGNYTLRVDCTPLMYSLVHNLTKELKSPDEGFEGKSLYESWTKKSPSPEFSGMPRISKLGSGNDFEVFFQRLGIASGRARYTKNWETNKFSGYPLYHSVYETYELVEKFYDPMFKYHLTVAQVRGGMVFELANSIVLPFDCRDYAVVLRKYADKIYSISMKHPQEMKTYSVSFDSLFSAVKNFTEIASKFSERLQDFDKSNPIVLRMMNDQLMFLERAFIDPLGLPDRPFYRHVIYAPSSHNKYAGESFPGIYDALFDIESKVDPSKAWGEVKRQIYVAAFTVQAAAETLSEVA
Description: SPR (Biacore 8K), antibody captured on anti-Fc, PSMA in solution. The method, then: The antibodies were captured on a goat anti-Fc antibody-modified C1 chip and titrated with 3-fold serial dilutions of PSMA antigen spanning concentrations of 1 nM to 100 nM human PSMA. The association and dissociation were monitored for 3 and 30 minutes, respectively, using a flow rate of 50 μL/min. Raw binding data was referenced by subtracting the analyte binding signals from blanks and analyzed using a 1:1 Langmuir binding model by the Biacore Insight evaluation software to obtain the kinetics which were used to calculate the binding affinity. The anti-PSMA were captured using an anti-human Fc antibody and the antigens were injected in solution.
(In general: Surface plasmon resonance follows binding to a sensor surface in real time, without labels.)
Usually Kd stands for the concentration at which binding is half-saturated. Broadly, the koff is the rate constant with which the complex falls apart. What is called kon is a measure of how fast the partners come together. On to B1, for which the equilibrium dissociation constant (Kd) came out at 1.11 nM, the off-rate constant (koff) was 0.000168 s⁻¹ and the association rate constant (kon) was determined as 151000 M⁻¹ s⁻¹.
As to B2, the Kd came out at 1.01 nM, the off-rate (koff) worked out at 7.75e-05 s⁻¹ and the association rate constant (kon) worked out at 77100 M⁻¹ s⁻¹.
The corresponding values for B3 are 0.333 nM, 6.98e-05 s⁻¹ and 209000 M⁻¹ s⁻¹.
The corresponding values for B4 are 0.657 nM, 7.02e-05 s⁻¹ and 107000 M⁻¹ s⁻¹.

For another test, the target named is T3, Human CD3 epsilon (CD3ε), on primary human pan T cells (human, UniProt P07766 23-207).
T3 construct: Endogenous CD3 in the TCR complex on T cells; also called T-cell surface glycoprotein CD3 epsilon chain; T3E
T3 sequence (P07766 23-207 limits assumed): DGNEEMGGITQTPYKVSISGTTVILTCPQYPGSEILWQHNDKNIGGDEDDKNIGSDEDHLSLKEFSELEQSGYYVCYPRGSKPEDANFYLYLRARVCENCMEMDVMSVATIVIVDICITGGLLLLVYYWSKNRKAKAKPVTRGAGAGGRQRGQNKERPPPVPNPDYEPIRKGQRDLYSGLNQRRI
Description: flow cytometry on human T cells, anti-human IgG Fc A647 detection. The method, then:
The bsAbs were assayed for their abilities bind T cells and to induce T-cell mediated cytotoxicity against H929 cells (ATCC@CRL-9068™). […] Stain buffer with no antibody was added to bottom 4 wells and assign as background control (secondary antibody alone). Parental Cris7b, CD3B695 (bivalent mAb controls) and CD3B375 (bsAb which was monovalent for Cris-7b) were added also with full dose-response curves.
Frozen T-cells were thawed in a 37° C. water bath and transferred gently into conical tube containing warm 5 mL media (RPMI+10% FBS)/1 vial of 1×10⁶ cells. Cells were mixed and centrifuged for 5 minutes at 400×g followed by resuspension in flow staining buffer, and counted and viability checked. Cells were then plated in 50 uL/50,000 cells/well into assay plates. Assay positive control mAb was added in the first column in quadruplicates at 2× at 20 nM in the bottom 4 wells. Stain buffer with no mAb was added to the top 4 wells and assigned as background controls (secondary antibody alone). Serially diluted antibody samples were added at 50 uL/well using Intergra Viaflo according to the attached plate maps and incubated for 1 hr at 37° C. After one hour incubation, 150 uL staining buffer were added to all wells, and cells were spun at 500×g for 5 minutes to pellet cells. Cells were then washed prior to addition of Alexa Fluor 647 (A647) conjugated anti human IgG Fc specific secondary detection antibody at 2 ug/mL in staining buffer. Secondary detection antibody was added at 50 uL/well to the washed cells. Plates were covered with foil and incubated for 30 minutes on ice or in the fridge. 150 uL staining buffer were added to all wells, and cells were spun at 500×g for 5 min to pellet cells. Cells were resuspended in 20 uL running buffer containing 1:1000 dilution of SYTOX™ green dead cell stain and run plates on iQue® Screener flow cytometer (Essen BioScience, Inc.). Briefly, cells were gated on FCS vs. SCS dot plot to eliminate debris. Singlets were gated on SCS-A vs SCS-H dot plot and from singlet population, live cells gated choosing BL1 channel for low/negative with SYTOX™ green viability stain (Thermo Fisher).
Molecule B5 registered an EC50 of 6.8 nM. In other words, the single-digit nanomolar range.
On the same count and under the same terms, as for B6, the figure is 21.8 nM; as for B7, 6.4 nM; as for B8, 100 nM.
Same read-out and setting: as for B9, the figure is 36.9 nM; as for B10, 300 nM.
Still for that read-out and setting: the same measure for B11: at least 300 nM.
